Test results: patent US20200370050

Target: FLAG-CRAF (1-648)

B1: human placental GSTP1 (Sigma-Aldrich) (protein)
chain: PPYTVVYFPVRGRCAALRMLLADQGQSWKEEVVTVETWQEGSLKASCLYGQLPKFQDGDLTLYQSNTILRHLGRTLGLYGKDQQEAALVDMVNDGVEDLRCKYISLIYTNYEAGKDDYVKALPGQLKPFETLLSQNQGGKTFIVGDQISFADYNLLDLLLIHEVLAPGCLDAFPLLSAYVGRLSARPKLKAFLASPEYVNLPINGNGKQ
phosphorylation of MEK1 by FLAG-CRAF (in vitro kinase assay, Western blot for p-MEK1/2): GSTP1 was found to enhance the phosphorylation of MEK1 by FLAG-CRAF (compare lanes 3 and 5 in FIG. 3)
